The source of these data is the supplement of paper PMC9170038.

This data set deals with MS2 coat protein. In words: apparent KD of MS2 coat protein; designed switch direction (-1 OFF switch, 1 ON switch): -1; higher = weaker reporter binding. An outline of the steps: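 Normalised cluster fluorescence was curve-fitted, and each design's median over clusters is its apparent KD. Before this, SNAP-549-labelled MS2 coat protein was titrated from 0.7 or 1.5 nM, doubling to 3 µM, over RNA switches transcribed on Illumina chips by stalled E. coli RNA polymerase. Titrations had no input, 200 uM small-molecule ligand, or an oligonucleotide input, and steps lasted 0.8–1.5 h (lowest) to 10–20 min (highest).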

Where [1] appears, read: input ligand: microRNA oligo, concentration not stated.
The mark [2] stands for this setting: Eterna round: R95, input ligand: FMN 200 uM.
The mark [3] stands for this setting: Eterna round: R95, input ligand: microRNA oligo, concentration not stated.
Setting [4] is: Eterna round: R95, input ligand: none.

Consider “GAACCAUGAGGAUAUUCUGAUCCUUACAUGAGGAUCACCCAUGUGAGUACAAAAGUACUCGAAGAAGGCAUGGUUC [Omei Ex5 B1] (Eterna round: R97, puzzle: Exclusion 5)”, for which the “apparent KD of MS2 coat protein” value runs as follows: (input ligand: FMN 200 uM) 0.616 µM; (input ligand: none) 2.13 µM.
As for “GAACUGAAGCUUUGCUUUAGUCGUACAUGAGGAUCACCCAUGUAGGAUAUGGUAGGCUUUGCUUACUAGAAGGACAGAGUGAUC [Mat - Exclusion NG 3 - Mod of JL - D68] (Eterna round: R96, puzzle: Exclusion NG 3)”, the “apparent KD of MS2 coat protein” value reads like this: (input ligand: FMN 200 uM) 0.0618 µM; under setting [1], 0.0738 µM; (input ligand: none) 0.113 µM.
Consider “GAAGAAGAGAGAAAAGAAAACAUGAGGAUCACCCAUGUGAGAAGAUGAGGGUGUAACAGGCUUUAUGCUCGUCUUAU (puzzle: Sensor v3, turn-off variant 1)”, for which the “apparent KD of MS2 coat protein” value came to 0.0336 µM under setting [2], 0.12 µM under setting [3] and 0.0401 µM under setting [4].
For the sequence “GAAGAGACAGGAUAUACAUGAGGAUCACCCAUGUGAGGAGGUUGGAGGCGGAGAAGGUGUAGAAGGGUCAAAGA [JR_Exclu3_Sub022] (puzzle: Exclusion 3)”, the “apparent KD of MS2 coat protein” value amounted to 0.0415 µM under setting [2], 0.036 µM under setting [3] and 0.0514 µM under setting [4].
For “GAAGAGACAGGAUAUACAUGAGGAUCACCCAUGUGAGGAUGUUGGAGGCGGAGGAGGUGUAGAAGGGUCAAAGA [JR_Exclu3_Sub020] (puzzle: Exclusion 3)”, under setting [3], the “apparent KD of MS2 coat protein” value came to 0.0267 µM.
“GAAGAGACAGGAUAUACAUGAGGAUCACCCAUGUGAGUAUGUUGGAGGCGGAGGAGAUGUAGAAGGGUCAAAGA [JR_Exclu3_Sub018] (puzzle: Exclusion 3)”: the “apparent KD of MS2 coat protein” value by setting is: under setting [2], 0.0363 µM; under setting [3], 0.0239 µM; under setting [4], 0.0297 µM.
Consider “GAAGUUAGAGGAUAUACAUGAGGAUCACCCAUGUGUGAAGUAAACUUUGUAUGUUUAUGUAGAAGGCUAACUUC [-21.7, -19.9 kcal, 32% A] (Eterna round: R97, puzzle: Exclusion 3)”, for which the “apparent KD of MS2 coat protein” value reads like this: (input ligand: FMN 200 uM) 0.094 µM; (input ligand: none) 0.0191 µM.
“GAAUACAGAGGAUAUGCGUAAUAGGUAGUAAGAUAUAUAUGACAUGAGGAUCACCCAUGUAGAAGGCUGAGAUA [EX2 #1] (Eterna round: R97, puzzle: Exclusion 2)”: the “apparent KD of MS2 coat protein” value is, setting by setting: (input ligand: FMN 200 uM) 0.0269 µM; (input ligand: none) 0.0305 µM.
The matching figures for “GAAUAGGGAGGAUAUCCAAUAUAUGACAUGAGGAUCACCCAUGUUUCCACUCGUACCUCCGGAGAAGGCCCAUAAG [Ex5 #5] (Eterna round: R97, puzzle: Exclusion 5)”: 0.0224 µM and 0.0306 µM.
Take “GACAGCGGAGGAUAUGCCGUAGAUUACAUGAGGAUCACCCAUGUGGGCUGUAAGUAAUAGGCAGAAGGCUGCCGUU [Eternabot (Original) Solution 33] (Eterna round: R97, puzzle: Exclusion 5)”: the “apparent KD of MS2 coat protein” value by setting is: (input ligand: FMN 200 uM) 0.144 µM; (input ligand: none) 0.109 µM.
With “GACAUGAGGAUCACCCAUGUAACCAGGGCAAUUCUCGAAAUGGAGGAUAUGAAUCUUAAUUAGGUUCAGAAGGCCAGAAGGCUA [Eternabot solution 29] (Eterna round: R96, puzzle: Exclusion NG 3)”, the “apparent KD of MS2 coat protein” value is 0.784 µM (input ligand: FMN 200 uM), 0.194 µM under setting [1] and 0.206 µM (input ligand: none).
“GACAUGAGGAUCACCCAUGUAACCUCAUGUAGGAAGGAGAGUAAGGAUAUAUAUGAAGGAAUGAAGUAGAAGGUGCAUAGAGAG [Default title] (Eterna round: R96, puzzle: Exclusion NG 3)”: the “apparent KD of MS2 coat protein” value (input ligand: FMN 200 uM) worked out at 0.539 µM, the “apparent KD of MS2 coat protein” value under setting [1] came out at 1.35 µM and the “apparent KD of MS2 coat protein” value (input ligand: none) was found to be 0.854 µM.
Turning to “GACAUUUGAGGAUAUGCAGCUAGCUUCGUUUUCAAAUCGAGACAUGAGGAUCACCCAUGUAGAAGGCAAGGUCG [Eternabot (L1) Solution 88] (Eterna round: R97, puzzle: Exclusion 2)”, the “apparent KD of MS2 coat protein” value reads like this: (input ligand: FMN 200 uM) 0.0294 µM; (input ligand: none) 0.0319 µM.
Regarding “GACCAAUAGGUAGGAUAUCAUUGCGAUUAGCUAUGAGAAGGACCACAUGAGGAUCACCCAUGUCCUCUAAUUAGCCAAUUGGUA [8th something] (Eterna round: R96, puzzle: Exclusion NG 1)”, the “apparent KD of MS2 coat protein” value runs as follows: (input ligand: FMN 200 uM) 0.426 µM; under setting [1], 0.17 µM; (input ligand: none) 0.0909 µM.
With “GACCAGCUAGGAUAUACAUGAGGAUCACCCAUGUGCAUUAAAGGGCUGGGUGACCCGCGUAGAAGGAGCGGGUC [Ustieded] (Eterna round: R97, puzzle: Exclusion 3)”, the “apparent KD of MS2 coat protein” value is, setting by setting: (input ligand: FMN 200 uM) 0.0139 µM; (input ligand: none) 0.0145 µM.
On to “GACCCAACCGUUAGGAUAUAGUCGACCUACGGCGACUAGAAGGAACAUGAGGAUCACCCAUGUGUGCGCACAAC [Eternabot (Original) Solution 25] (Eterna round: R97, puzzle: Brourd's mod of Exclusion 4)”, for which the “apparent KD of MS2 coat protein” value by setting is: (input ligand: FMN 200 uM) 0.19 µM; (input ligand: none) 0.0608 µM.
On to “GACCGGACGUGGUCUGGUAACAUGAGGAUCACCCAUGUAGGUCUAAGAACAUGCCUUUUGCACGCUCGUCUUAUAUA [JR_SV3TOV1_Sub063] (puzzle: Sensor v3, turn-off variant 1)”, for which the “apparent KD of MS2 coat protein” value came out at 0.0547 µM under setting [2], 0.0382 µM under setting [3] and 0.0638 µM under setting [4].
Turning to “GACCUACAUGAGGAUCACCCAUGUCAGGAUAUGUGGCGGAGUACGAACAGUCCAAGCGACAGAAGGGACAACAG [Eternabot (Original) Solution 24] (Eterna round: R97, puzzle: Exclusion 1)”, the “apparent KD of MS2 coat protein” value was 0.0278 µM (input ligand: FMN 200 uM) and 0.0253 µM (input ligand: none).
Consider “GACCUAUAGGUAGGAUAUCAUUGCGAUUAGCUAUGAGAAGGACCACAUGAGGAUCACCCAUGUCCUCCAAUUAACCAUAAGGUC [Fiskers ExNg1 - 5] (Eterna round: R96, puzzle: Exclusion NG 1)”, for which the “apparent KD of MS2 coat protein” value came out at 0.0987 µM (input ligand: FMN 200 uM), 0.0346 µM under setting [1] and 0.0409 µM (input ligand: none).
“GACCUAUAGGUAGGAUAUCAUUGCGAUUAGCUAUGAGAAGGACCACAUGAGGAUCACCCAUGUCCUCCAAUUAGCCAUUUGGUC [Fiskers ExNg1 - 7] (Eterna round: R96, puzzle: Exclusion NG 1)”: the “apparent KD of MS2 coat protein” value came to 0.196 µM (input ligand: FMN 200 uM), 0.047 µM under setting [1] and 0.0583 µM (input ligand: none).
Turning to “GACCUAUAGGUAGGAUAUCAUUGCGAUUAGCUAUGAGAAGGGCCACAUGAGGAUCACCCAUGUCCUCCAAUUAACCAUAAGGUC [Fiskers ExNg1 - 6] (Eterna round: R96, puzzle: Exclusion NG 1)”, the “apparent KD of MS2 coat protein” value runs as follows: (input ligand: FMN 200 uM) 0.0385 µM; under setting [1], 0.0267 µM; (input ligand: none) 0.0373 µM.
As to “GACCUGAGGCAAAGCUUUAGGCUUACAUGAGGAUCACCCAUGUAGGAUAUGGUAGGCAAAGCUUACCAGAAGGACAUGGAAAUU [Mat - Exclusion NG 3 - Mod of JL - D25] (Eterna round: R96, puzzle: Exclusion NG 3)”, the “apparent KD of MS2 coat protein” value is, setting by setting: (input ligand: FMN 200 uM) 0.646 µM; under setting [1], 0.0987 µM; (input ligand: none) 0.125 µM.
